Experimental data: patent US20190024073

Experiments:
Test in all cases: cell_activity
[1] = test system: zebrafish nd4 forward mitoTALE-nickase-2 (synthetic (Xanthomonas TALE-FokI)?); details: nd4 nickase-1 + nickase-2, zebrafish embryos
[2] = test system: zebrafish atp8 reverse mitoTALE-nickase (synthetic (Xanthomonas TALE-FokI)?); details: nd5+atp8 nickases, >90% with nd4 nuclease
[3] = test system: zebrafish nd5 forward mitoTALE-nickase (synthetic (Xanthomonas TALE-FokI)?); details: nd5+atp8 nickases, >90% with nd4 nuclease
[4] = test system: zebrafish nd4 forward mitoTALE-nickase-1 (synthetic (Xanthomonas TALE-FokI)?); details: nd4 nickase-1 + nickase-2, zebrafish embryos
[5] = test system: zebrafish nd4 reverse mitoTALE-nickase-1 (synthetic (Xanthomonas TALE-FokI)?); details: nd4 nickase-1 + nickase-2, zebrafish embryos
[6] = test system: zebrafish atp8 forward mitoTALE-nickase (synthetic (Xanthomonas TALE-FokI)?); details: nd5+atp8 nickases, >90% with nd4 nuclease
[7] = test system: zebrafish nd4 reverse mitoTALE-nickase-2 (synthetic (Xanthomonas TALE-FokI)?); details: nd4 nickase-1 + nickase-2, zebrafish embryos
[8] = test system: zebrafish nd4 reverse mitoTALE nuclease (synthetic (Xanthomonas TALE-FokI)?); details: co-injected with nd5 and atp8 nickases; heteroplasmic shift to about 2-10%
[9] = test system: zebrafish nd5 reverse mitoTALE-nickase (synthetic (Xanthomonas TALE-FokI)?); details: nd5+atp8 nickases, >90% with nd4 nuclease
[10] = test system: zebrafish nd4 forward mitoTALE nuclease (synthetic (Xanthomonas TALE-FokI)?); details: co-injected with nd5 and atp8 nickases; heteroplasmic shift to about 2-10%

Q: With “GACTAAAATGAACCT (double strand) [zebrafish nd4 nickase-2 forward half-site]” as the sequence, how does the activity (% embryos with deletion) [1] read?
A: 50

Q: For “TAGGTTGAATGTGAT (double strand) [zebrafish atp8 reverse half-site]”, which activity (% embryos with deletion) [2] is on record?
A: 30

Q: How did the activity (% embryos with deletion) [3] turn out when “AGGGCTAATGATAGT (double strand) [zebrafish nd5 forward half-site]” was run?
A: 30

Q: “TTACACCTAATTCCT (double strand) [zebrafish nd4 nickase-1 forward half-site]” was tested. Which activity (% embryos with deletion) [4] did it give?
A: 50

Q: “AAGTTCTGGTTTTAA (double strand) [zebrafish nd4 nickase-1 reverse half-site]” was tested. Which activity (% embryos with deletion) [5] did it give?
A: 50

Q: For “TCCTTACTATTATTC (double strand) [zebrafish atp8 forward half-site]”, which activity (% embryos with deletion) [6] is on record?
A: 30

Q: How did the activity (% embryos with deletion) [7] turn out when “ACGAGTTAGAAGCAT (double strand) [zebrafish nd4 nickase-2 reverse half-site]” was run?
A: 50

Q: Which activity (% embryos with deletion) [8] does the source give for “CGGGTAATAATGATT (double strand) [zebrafish nd4 nuclease reverse half-site]” here?
A: > 90

Q: For “GCTAGATGTGGTTGG (double strand) [zebrafish nd5 reverse half-site]”, which activity (% embryos with deletion) [9] is on record?
A: 30

Q: How did the activity (% embryos with deletion) [10] turn out when “TATATTCGAAGCTAC (double strand) [zebrafish nd4 nuclease forward half-site]” was run?
A: > 90
